The values that follow come from article PMC8639918 (2021).

As usually defined, the Kd is the concentration at which binding is half-saturated.

The target of this assay is PHR2^(230–426 L348A/L358A/I362A) (rice, UniProt Q6Z156 230-426, L348A | L358A | I362A). Briefly: ITC; with InsP6.

B1: SPX1^1–259 (C-terminally truncated fragment of rice SPX1) (domain or fragment)
chain: MKFGKSLSSQIVETLPEWRDKFLSYKDLKKRLKLIGGGGGGEERQAKRARVAADGGEEEAAAAAMTPEEAGFMRLLEAELDKFNSFFVEKEEEYIIRQKELQDRVARAAGRESKEELMRVRKEIVDFHGEMVLLENYSALNYTGLVKILKKYDKRTGALIRLPFIQKVLQQPFFTTDLLYKLVKQCEAMLDQLLPSNELSVSSEDGRGDSTNEDKPSNPSSSLVNGGTIPELDEIEYMESMYMKGTVAALRSLKEIRSG
B1: binding was put at a Kd of 140 nM.
